Molecular target: Human E1 (ubiquitin-activating enzyme) (UniProt P22314)
Sequence of UniProt P22314 (P22314 whole entry): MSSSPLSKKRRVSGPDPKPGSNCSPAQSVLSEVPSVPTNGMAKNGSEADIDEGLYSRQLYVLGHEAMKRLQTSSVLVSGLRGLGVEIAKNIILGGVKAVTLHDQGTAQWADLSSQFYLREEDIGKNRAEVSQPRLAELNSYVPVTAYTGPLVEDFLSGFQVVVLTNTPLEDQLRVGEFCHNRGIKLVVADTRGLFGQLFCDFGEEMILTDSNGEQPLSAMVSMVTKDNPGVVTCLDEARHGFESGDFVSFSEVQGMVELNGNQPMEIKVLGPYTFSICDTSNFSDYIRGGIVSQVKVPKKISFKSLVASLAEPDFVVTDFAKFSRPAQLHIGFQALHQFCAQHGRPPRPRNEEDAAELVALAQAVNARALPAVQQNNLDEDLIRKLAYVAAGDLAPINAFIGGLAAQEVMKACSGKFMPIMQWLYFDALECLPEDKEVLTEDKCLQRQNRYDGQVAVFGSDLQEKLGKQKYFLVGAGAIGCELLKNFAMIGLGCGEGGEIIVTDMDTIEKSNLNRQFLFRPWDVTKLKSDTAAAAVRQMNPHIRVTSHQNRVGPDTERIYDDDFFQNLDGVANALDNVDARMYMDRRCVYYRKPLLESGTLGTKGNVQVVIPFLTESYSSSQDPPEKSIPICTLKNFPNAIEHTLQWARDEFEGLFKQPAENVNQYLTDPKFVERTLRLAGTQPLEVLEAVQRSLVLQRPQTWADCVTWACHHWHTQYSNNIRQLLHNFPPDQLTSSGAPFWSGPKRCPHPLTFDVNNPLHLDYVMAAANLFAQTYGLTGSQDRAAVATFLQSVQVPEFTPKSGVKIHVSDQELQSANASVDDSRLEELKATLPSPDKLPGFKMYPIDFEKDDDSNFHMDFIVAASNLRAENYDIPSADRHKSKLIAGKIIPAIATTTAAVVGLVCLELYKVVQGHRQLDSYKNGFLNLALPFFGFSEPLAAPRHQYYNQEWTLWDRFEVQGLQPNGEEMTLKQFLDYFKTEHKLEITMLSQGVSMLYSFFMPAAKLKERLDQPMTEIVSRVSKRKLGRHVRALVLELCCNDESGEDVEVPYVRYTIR

**Q.** FLJ11011v2 was tested. Which “ubiquitinylation reaction, anti-Ub western blot” value did it give?
**A.** FLJ11011v2 is efficiently ubiquitinylated in this assay

From US20060070134
